We go through 1 molecule from patent publication US20260193352A1 (published 2026).

In this experiment the target is T1, cynomolgus monkey PD-1 Fc fusion (cynomolgus monkey, UniProt B0LAJ3 25-170).
T1 construct: also called Cyno PD-1
The experiment in a line: SPR.

T1 sequence (B0LAJ3 entry or part of it limits assumed, form in doubt): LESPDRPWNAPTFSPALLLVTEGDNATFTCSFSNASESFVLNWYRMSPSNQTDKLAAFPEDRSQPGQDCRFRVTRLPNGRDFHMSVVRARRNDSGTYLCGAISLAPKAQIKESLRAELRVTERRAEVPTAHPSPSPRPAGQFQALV

B1: PD-1-binding agent (comprising SEQ ID NOs: 1 and 2) (antibody, V domains shown)
VH: EVQLLESGGGLVQPGGSLRLSCAASGFTFSSYDMSWVRQAPGKGLEWVSTISGGGSYTYYQDSVKGRFTISRDNSKNTLYLQMNSLRAEDTAVYYCASPYYAMDYWGQGTTVTVSS
VL: DIQLTQSPSFLSAYVGDRVTITCKASQDVGTAVAWYQQKPGKAPKLLIYWASTLHTGVPSRFSGSGSGTEFTLTISSLQPEDFATYYCQHYSSYPWTFGQGTKLEIKR
In the case of B1, the “fold difference in KD (cynomolgus monkey PD-1 against human PD-1)” value is less than 2 fold.
